From patent publication US11912794B2, “Modulation of structured polypeptide specificity” (BicycleRD Limited, priority 2011, dated 2024)
Ends that are not written are not given here.

Biological target: T1, Biotinylated hPK (Homo sapiens, UniProt P03952)
T1 construct: IHPKA, from human plasma; purchased Innovative Research, Novi, MI, USA IHPKA; host or cells: human plasma
Assay: Phage selections, abundance of sequences in selection outputs
Format: binding
Details: for Frequency (relative abundance in the total selection outputs): randomised WPAR motif at positions 2, 3, 4 & 5 within the 06-34-03 sequence
Protocol: Glycerol stocks of phage libraries were diluted to OD600=0.1 in 500 ml 2YT/chloramphenicol (30 μg/ml) cultures and phage were produced at 30° C. over night (15-16 hrs). Phage were purified and chemically modified as described in Heinis, et al., Nat Chem Biol 2009, 5 (7), 502-7 Biotinylated hPK (3 μg) (IHPKA, from human plasma, Innovative Research, Novi, MI, USA) was incubated with 50 μl pre-washed magnetic streptavidin beads (Dynal, M-280 from Invitrogen, Paisley, UK) for 10 minutes at RT. […] Blocked beads were then mixed with the blocked chemically modified phage and incubated for 30 minutes on a rotating wheel at RT. Beads were washed 8 times with washing buffer containing 0.1% Tween 20 and twice with washing buffer before incubation with 100 μl of 50 mM glycine, pH 2.2 for 5 minutes. Eluted phage were transferred to 50 μl of 1 M Tris-Cl, pH 8 for neutralization, incubated with 30 ml TG1 cells at OD600=0.4 for 90 minutes at 37° C. and the cells were plated on large 2YT/chloramphenicol plates. One or two additional rounds of panning were performed using the same procedures. In the second round of selection, neutravidin-coated magnetic beads were used to prevent the enrichment of streptavidin-specific peptides. The neutravidin beads were prepared by reacting 0.8 mg neutravidin (Pierce, Rockford, IL, USA) with 0.5 ml tosyl-activated magnetic beads (Dynal, M-280 from Invitrogen, Paisley, UK) according to the supplier's instructions.
The WPAR (SEQ ID NO: 18) motif identified from Example 1 was analysed in the context of the 06-34-03 peptide, in order to identify alternatives or improvements to the WPAR (SEQ ID NO: 18) motif. A library was constructed where positions 1, 6, 7, 8, 9 &10 of 06-34-03 were fixed and positions 2, 3, 4 & 5 were randomised (see ‘Randomisation of peptide domains—Library construction’ in Methods above). Selections against human plasma Kallikrein were performed at a variety of stringencies (see Phage selections' in Methods above). All output sequences were identified and analysed for target binding (see ‘Randomisation of peptide domains—Assay of binding of individual clones’ in Methods above). Table 17 lists each unique sequence, its relative abundance in the selection output (frequency), and a rank number according to target binding strength.

[1] = 2nd stringency from High (1st value of cell)
[2] = 3rd stringency from High (2nd value of cell)
[3] = 4th stringency from High (3rd value of cell)
[4] = 5th stringency from High (4th value of cell)

T1 sequence (P03952 20-638): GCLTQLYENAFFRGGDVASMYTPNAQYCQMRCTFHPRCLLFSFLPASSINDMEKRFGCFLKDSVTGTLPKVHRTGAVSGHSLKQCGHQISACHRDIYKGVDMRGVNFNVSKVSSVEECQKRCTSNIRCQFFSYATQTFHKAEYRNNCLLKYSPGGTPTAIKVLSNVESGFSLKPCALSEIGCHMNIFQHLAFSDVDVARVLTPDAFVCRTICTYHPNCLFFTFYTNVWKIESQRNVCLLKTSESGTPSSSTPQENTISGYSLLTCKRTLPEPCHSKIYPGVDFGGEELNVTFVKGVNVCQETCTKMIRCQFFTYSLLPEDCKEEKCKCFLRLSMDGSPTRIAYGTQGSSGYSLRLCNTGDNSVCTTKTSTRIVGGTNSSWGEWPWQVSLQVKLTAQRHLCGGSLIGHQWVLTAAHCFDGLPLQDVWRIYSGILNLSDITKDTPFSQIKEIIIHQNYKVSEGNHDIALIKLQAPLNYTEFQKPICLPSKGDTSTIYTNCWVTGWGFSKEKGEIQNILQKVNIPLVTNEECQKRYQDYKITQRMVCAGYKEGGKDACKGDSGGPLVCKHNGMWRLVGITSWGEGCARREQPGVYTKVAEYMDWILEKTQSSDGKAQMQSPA

“WPYR: phage clone: WPYR at positions 2-5 within the 06-34-03 sequence, TBMB-cyclised (also: TBMB-cyclised within the 06-34-03 context, the cysteines lie outside this motif)” was tested, and the “Relative abundance of motif in selection output” value [1] was 3%, the “Relative abundance of motif in selection output” value [2] was 0% and the “Relative abundance of motif in selection output” value [3] was 4%. The “Relative abundance of motif in selection output” value [4] was 0%, the “Relative abundance of motif in selection output” value (stringency High) was 3% and the “Relative abundance of motif in selection output” value (stringency LOW) was 0%.
For “SEQ ID NO: 80 (CSHPYRCTHQDLC; Synthetic sequence Kallikrein binder identified from selections using a randomised WPAR motif at positions 2, 3, 4 & 5 within the 06-34-03 sequence of PCT/EP2012/069898 (SEQ ID NO 58))”, the “Frequency (relative abundance in the total selection outputs)” value was 2.
For “SEQ ID NO: 99 (CSWWARCTHQDLC; Synthetic sequence Kallikrein binder identified from selections using a randomised WPAR motif at positions 2, 3, 4 & 5 within the 06-34-03 sequence of PCT/EP2012/069898 (SEQ ID NO 58))”, the “Frequency (relative abundance in the total selection outputs)” value was 1.
With “SEQ ID NO: 81 (CSHPFRCTHQDLC; Synthetic sequence Kallikrein binder identified from selections using a randomised WPAR motif at positions 2, 3, 4 & 5 within the 06-34-03 sequence of PCT/EP2012/069898 (SEQ ID NO 58))” the “Frequency (relative abundance in the total selection outputs)” value was 1.
In the case of “SEQ ID NO: 98 (CSYPYRCTHQDLC; Synthetic sequence Kallikrein binder identified from selections using a randomised WPAR motif at positions 2, 3, 4 & 5 within the 06-34-03 sequence of PCT/EP2012/069898 (SEQ ID NO 58))”, the “Frequency (relative abundance in the total selection outputs)” value is reported as 2.
“SEQ ID NO: 103 (CSMPYRCTHQDLC; Synthetic sequence Kallikrein binder identified from selections using a randomised WPAR motif at positions 2, 3, 4 & 5 within the 06-34-03 sequence of PCT/EP2012/069898 (SEQ ID NO 58))” was tested, and the “Frequency (relative abundance in the total selection outputs)” value was 2.
“SEQ ID NO: 90 (CSYPIRCTHQDLC; Synthetic sequence Kallikrein binder identified from selections using a randomised WPAR motif at positions 2, 3, 4 & 5 within the 06-34-03 sequence of PCT/EP2012/069898 (SEQ ID NO 58))” was tested, and the “Frequency (relative abundance in the total selection outputs)” value was 2.
For “SEQ ID NO: 77 (CSFPYRCTHQDLC; Synthetic sequence Kallikrein binder identified from selections using a randomised WPAR motif at positions 2, 3, 4 & 5 within the 06-34-03 sequence of PCT/EP2012/069898 (SEQ ID NO 58))”, the “Frequency (relative abundance in the total selection outputs)” value was 12.
“WSAR: phage clone: WSAR at positions 2-5 within the 06-34-03 sequence, TBMB-cyclised (also: TBMB-cyclised within the 06-34-03 context, the cysteines lie outside this motif)” was tested, and the “Relative abundance of motif in selection output” value [1] was 3%, the “Relative abundance of motif in selection output” value [2] was 3% and the “Relative abundance of motif in selection output” value [3] was 7%. For the same substance, the “Relative abundance of motif in selection output” value [4] was 6%, the “Relative abundance of motif in selection output” value (stringency High) was 3% and the “Relative abundance of motif in selection output” value (stringency LOW) was 11%.
For “SEQ ID NO: 83 (CRFPFKCTHQDLC; Synthetic sequence Kallikrein binder identified from selections using a randomised WPAR motif at positions 2, 3, 4 & 5 within the 06-34-03 sequence of PCT/EP2012/069898 (SEQ ID NO 58))”, the “Frequency (relative abundance in the total selection outputs)” value was 1.
“WPFR: phage clone: WPFR at positions 2-5 within the 06-34-03 sequence, TBMB-cyclised (also: TBMB-cyclised within the 06-34-03 context, the cysteines lie outside this motif)” was tested, and the “Relative abundance of motif in selection output” value [1] was 3%, the “Relative abundance of motif in selection output” value [2] was 0% and the “Relative abundance of motif in selection output” value [3] was 0%. For the same substance, the “Relative abundance of motif in selection output” value [4] was 6%, the “Relative abundance of motif in selection output” value (stringency High) was 7% and the “Relative abundance of motif in selection output” value (stringency LOW) was 4%.
With “SEQ ID NO: 86 (CSWPFRCTHQDLC; Synthetic sequence Kallikrein binder identified from selections using a randomised WPAR motif at positions 2, 3, 4 & 5 within the 06-34-03 sequence of PCT/EP2012/069898 (SEQ ID NO 58))” the “Frequency (relative abundance in the total selection outputs)” value was 7.
With “SEQ ID NO: 100 (CSWPYKCTHQDLC; Synthetic sequence Kallikrein binder identified from selections using a randomised WPAR motif at positions 2, 3, 4 & 5 within the 06-34-03 sequence of PCT/EP2012/069898 (SEQ ID NO 58))” the “Frequency (relative abundance in the total selection outputs)” value was 1.
With “SEQ ID NO: 91 (CSWSARCTHQDLC; Synthetic sequence Kallikrein binder identified from selections using a randomised WPAR motif at positions 2, 3, 4 & 5 within the 06-34-03 sequence of PCT/EP2012/069898 (SEQ ID NO 58))” the “Frequency (relative abundance in the total selection outputs)” value was 10.
“SEQ ID NO: 113 (CSHRRWCTHQDLC; Synthetic sequence Kallikrein binder identified from selections using a randomised WPAR motif at positions 2, 3, 4 & 5 within the 06-34-03 sequence of PCT/EP2012/069898 (SEQ ID NO 58))” was tested, and the “Frequency (relative abundance in the total selection outputs)” value was 1.
For “SEQ ID NO: 110 (CSQVVGCTHQDLC; Synthetic sequence Kallikrein binder identified from selections using a randomised WPAR motif at positions 2, 3, 4 & 5 within the 06-34-03 sequence of PCT/EP2012/069898 (SEQ ID NO 58))”, the “Frequency (relative abundance in the total selection outputs)” value was 1.
For “FPYR: phage clone: FPYR at positions 2-5 within the 06-34-03 sequence, TBMB-cyclised (also: TBMB-cyclised within the 06-34-03 context, the cysteines lie outside this motif)”, the “Relative abundance of motif in selection output” value [1] was 3%, the “Relative abundance of motif in selection output” value [2] was 3% and the “Relative abundance of motif in selection output” value [3] was 7%. For the same substance, the “Relative abundance of motif in selection output” value [4] was 16%, the “Relative abundance of motif in selection output” value (stringency High) was 7% and the “Relative abundance of motif in selection output” value (stringency LOW) was 4%.
With “SEQ ID NO: 73 (CSWPARCTHQDLC; Synthetic sequence Kallikrein binder identified from selections using a randomised WPAR motif at positions 2, 3, 4 & 5 within the 06-34-03 sequence of PCT/EP2012/069898 (SEQ ID NO 58))” the “Frequency (relative abundance in the total selection outputs)” value was 24.
“SEQ ID NO: 95 (CSFPWRCTHQDLC; Synthetic sequence Kallikrein binder identified from selections using a randomised WPAR motif at positions 2, 3, 4 & 5 within the 06-34-03 sequence of PCT/EP2012/069898 (SEQ ID NO 58))” was tested, and the “Frequency (relative abundance in the total selection outputs)” value was 1.
